# Measurements from publication PMC8452523 (Cell Reports, 2021).
# Biological target: trimeric Spike, full B.1.351 variant (SARS-CoV-2, lineage B.1.351 (Beta), strain)
# Assay: Luminex bead-based binding assay
binder,measurement,value
"REGN10933 (antibody, V domains shown) VH: QVQLVESGGGLVKPGGSLRLSCAASGFTFSDYYMSWIRQAPGKGLEWVSYITYSGSTIYYADSVKGRFTISRDNAKSSLYLQMNSLRAEDTAVYYCARDRGTTMVPFDYWGQGTLVTVSS VL: DIQMTQSPSSLSASVGDRVTITCQASQDITNYLNWYQQKPGKAPKLLIYAASNLETGVPSRFSGSGSGTDFTFTISGLQPEDIATYYCQQYDNLPLTFGGGTKVEIK",fold reduced binding affinity,15 fold
